Tests used:
[1] = target: ITK-BTK((SH3)): ITK whose SH3 domain is replaced with the SH3 domain of BTK, fluorescent protein chimera (UniProt P35991); assay: co-IP; Jurkat (JTag) cells transfected with GFP-ITK constructs, stimulated or not with 5 ug/mL anti-CD3e OKT3 cross-linked with rabbit anti-mouse IgG for 1 minute at 37°C, lysed; FP-ITK immunoprecipitated with anti-GFP IgG; SLP-76 and ITK immunoblotted; association index by densitometry against the nonstimulated lane
[2] = target: ITK-BTK((SH3)): ITK whose SH3 domain is replaced with the SH3 domain of BTK, fluorescent protein chimera (UniProt P35991)

UniProt P35991, sequence (P35991 whole entry, stated change not applied, the tested form may be a part): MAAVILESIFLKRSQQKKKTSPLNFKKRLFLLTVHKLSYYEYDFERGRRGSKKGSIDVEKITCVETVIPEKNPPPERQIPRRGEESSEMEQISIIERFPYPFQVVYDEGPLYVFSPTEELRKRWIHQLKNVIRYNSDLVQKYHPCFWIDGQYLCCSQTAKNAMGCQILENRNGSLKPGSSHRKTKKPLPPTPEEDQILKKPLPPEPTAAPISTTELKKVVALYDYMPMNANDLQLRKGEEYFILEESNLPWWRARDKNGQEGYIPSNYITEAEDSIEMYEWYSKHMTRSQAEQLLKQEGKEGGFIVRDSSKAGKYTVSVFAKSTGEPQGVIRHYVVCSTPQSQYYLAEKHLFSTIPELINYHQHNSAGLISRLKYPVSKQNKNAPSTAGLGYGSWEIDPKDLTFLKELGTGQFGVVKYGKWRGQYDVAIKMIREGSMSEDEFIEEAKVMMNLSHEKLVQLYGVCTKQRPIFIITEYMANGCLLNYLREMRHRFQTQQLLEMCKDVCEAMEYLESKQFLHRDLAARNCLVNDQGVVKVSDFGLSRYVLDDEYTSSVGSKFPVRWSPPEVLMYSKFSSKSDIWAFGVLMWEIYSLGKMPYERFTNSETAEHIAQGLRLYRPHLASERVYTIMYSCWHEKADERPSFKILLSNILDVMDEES

reduction of the ITK-SLP-76 association against wild-type ITK [1]: 32%
TCR-induced tyrosine phosphorylation of ITK-BTK(SH3) in transfected Jurkat cells (anti-ITK IP, antiphosphotyrosine blot), reduction in signal intensity against wild type ITK [2]: 15%
B1: SLP-76 (natural protein)
chain: MALRNVPFRSEVLGWDPDSLADYFKKLNYKDCEKAVKKYHIDGARFLNLTENDIQKFPKLRVPILSKLSQEINKNEERRSIFTRKPQVPRFPEETESHEEDNGGWSSFEEDDYESPNDDQDGEDDGDYESPNEEEEAPVEDDADYEPPPSNDEEALQNSILPAKPFPNSNSMYIDRPPSGKTPQQPPVPPQRPMAALPPPPAGRNHSPLPPPQTNHEEPSRSRNHKTAKLPAPSIDRSTKPPLDRSLAPFDREPFTLGKKPPFSDKPSIPAGRSLGEHLPKIQKPPLPPTTERHERSSPLPGKKPPVPKHGWGPDRRENDEDDVHQRPLPQPALLPMSSNTFPSRSTKPSPMNPLPSSHMPGAFSESNSSFPQSASLPPYFSQGPSNRPPIRAEGRNFPLPLPNKPRPPSPAEEENSLNEEWYVSYITRPEAEAALRKINQDGTFLVRDSSKKTTTNPYVLMVLYKDKVYNIQIRYQKESQVYLLGTGLRGKEDFLSVSDIIDYFRKMPLLLIDGKNRGSRYQCTLTHAAGYP

Reference: article PMC3357558
